{"source": "the DeepSol protein solubility set"}
{"assay": "soluble on expression in E. coli; label from the status in PepcDB or PDB records"}
{"sequence": "MSLEEFVKTGKTVCILINKQGRIYYSNIGKDVAEKCLEDIHIFDHLPADGTVSYNVGYYTVTADTVDLDEAHYYLILIQPQGNLYKYAYRDSFTGLYNRNYWEQLISGKMHRPIPKRFTLIVIDVDNLKSLNDNRGHLAGDKAIRIVGKSIRESIRKQDIAVRYGGDEFFILLANTKKAIVEKVINRVKENIRKRGKEENIHIEISVGMACSNSINKLEKVITMADYNMYKEKREKKVQVKHIGEGHHHHHH", "soluble on expression in E. coli": "not soluble"}
{"sequence": "IPLPEQPGGSSDFIAFTDKAKLTFTTSRPMKMVYTLDETEPTLTSTPYTVPLEFAQTGLLKIRTVTAGGKMSPVRRIRVEKQPFNMSMEVPAPKPGLTIRTAYGDLYDVPDLQQVASWEVGTVSSLEEIMHGKEKITSPEVLERRVVEATGYVLIPEDGVYEFSTENNEFWIDNVKLIDNVGEVKKFSRRNSSRALQKGYHPIKTIWVGAIQGGWPTYWNYSRVMIRLKGEEKFKPISSDMLFQ", "soluble on expression in E. coli": "not soluble"}
{"sequence": "MGSDKIHHHHHHMQGTQQSLPLAVVRGQAMTEMPQDLFIPPEALEVFLESFEGPLDLLLYLIRKQKLDVVDLPISQITAQYLEYIAMLTQARIELASDYLVMAATLAEIKSRLLLPRMVAEDEVEEDPRAQLIRQLKAYEVIKEASQKIDDLPRLERDVFQATAAPSPNIKPLVIPPDVSLFEIARAFGDVLKRIDAYEDHHVKREQLSTRERMSQILAMLNSEDFTPFERLFSVEEGRAGVVVTFLALMELVKELLVELYQTEPFSTIYVKAY", "soluble on expression in E. coli": "not soluble"}
{"sequence": "MKFGKTIAVVLASSVLLAGCTTDKKEIKAYLKQVDKIKDDEEPIKTVGKKIAELDEKKKKLTEDVNSKDTAVRGKAVKDLIKNADDRLKEFEKEEDAIKKSEQDFKKAKSHVDNIDNDVKRKEVKQLDDVLKEKYKLHSDYAKAYKKAVNSEKTLFKYLNQNDATQQGVNEKSKAIEQNYKKLKEVSDKYTKVLNKVGKEKQDVDQFK", "soluble on expression in E. coli": "soluble"}
{"sequence": "MAHHHHHHMPTFSDIMAARKALDGYVYETPIIESNALHGKTRHESVLLKCENLQRTGSYHVRGMTYRVIRAKEEDLGINNFVTHSSGNGGAALACAASNFQSTAHVVVPEDTNALITRSIRLYHGNFYYCKPDLKSRVEMEARLHSEFNKVAGKKRNQCMLVNPYSDEAIIAGHGTTGIEIMLQTDCSVDCVVIPVGGGALLAGAAIAVKGMKPHVGVFAAELAVPPDHYTVFKRGEVIEARKLKGDEKRPKGNKHGIRTELTDLANSYIDRYVDGVVHVSKEEMCYAFRYVYERCKLVVDTNAAIAVAAVLACPQELSNYRRICIVLSGGNVDLNDVPKIATARL", "soluble on expression in E. coli": "soluble"}
{"sequence": "MSLGYTTAKKEVSVVIEDGINEIINKTERFVSLKLESDISLASSIVDSISLRISDEQYINDIINGNAIKKAFLSTGFGFDSNGKVIENDPNWEPEDDYDPRSRGWYQEAKKNKRIFITEPYLDTEGKNFLVSISSPVADTMNNFIGAMYFDVDLSRIQKNVDDINLFEAGYVFITSNTGKVIIHSNTDELGKNVKDIYNGFRLDKGKVVLSVNGVNKWLYTSPILGGDWFIIAVIDESIAMQSINKMKYEEGHHHHHH", "soluble on expression in E. coli": "soluble"}
{"sequence": "MPLGLGRRKKAPPLVENEEAEPGRGGLGVGEPGPLGGGGSGGPQMGLPPPPPALRPRLVFHTQLAHGSPTGRIEGFTNVKELYGKIAEAFRLPTAEVMFCTLNTHKVDMDKLLGGQIGLEDFIFAHVKGQRKEVEVFKSEDALGLTITDNGAGYAFIKRIKEGSVIDHIHLISVGDMIEAINGQSLLGCRHYEVARLLKELPRGRTFTLKLTEPRKAFDMISQRSAGGRPGSGPQLGTGRGTLRLRSRGPATVEDLPSAFEEKAIEKVDDLLESYMGIRDTELAATMVELGKDKRNPDELAEALDERLGDFAFPDEFVFDVWGAIGDAKVGRYLEHHHHHH", "soluble on expression in E. coli": "not soluble"}
{"sequence": "MRAASTSKPVGAHEETGHLGGAHSTYVSSAQVTNAEHENELQVVDLPRAPPSLSKAVTYFYITGFGRFALMEDNPTERVVLRLREILQDPGRVQMLHERLVRIVDLRILEVSAAAAHETLAEMKTQCLQMRQKPNISSDGRNRTVCFLHLGVDASADGFLVERSAVNEALFRFPDERGWQPTTPIPIVRGAQLGARYELDGEALASLCERTESLLNEWGRTNWTVRVNDDAGRFLCNYLFYLSAFEGLAENGHHLWQTFFLHCPMETVAPLDVQVDVVLAFMVAVAQSNAQQGPLEGILAR", "soluble on expression in E. coli": "soluble"}
{"sequence": "MHWGVGFASSRPCVVDLSWNQSISFFGWWAGSEEPFSFYGDIIAFPLQDYGGIMAGLGSDPWWKKTLYLTGGALLAAAAYLLHELLVIRKQQEIDSKDAIILHQFARPNNGVPSLSPFCLKMETYLRMADLPYQNYFGGKLSAQGKMPWIEYNHEKVSGTEFIIDFLEEKLGVNLNKNLGPHERAISRAVTKMVEEHFYWTLAYCQWVDNLNETRKMLSLSGGGPFSNLLRWVVCHITKGIVKREMHGHGIGRFSEEEIYMLMEKDMRSLAGLLGDKKYIMGPKLSTLDATVFGHLAQAMWTLPGTRPERLIKGELINLAMYCERIRRKFWPEWHHDDDNTIYESEESSEGSKTHTPLLDFSFYSRTETFEDEGAENSFSRTPDTDFTGHSLFDSDVDMDDYTDHEQCK", "soluble on expression in E. coli": "not soluble"}
{"sequence": "MSLEPKIVRFDLGKEYIILTSALYPEGIIRVNQICSIFVDKSYCSGNPWGDVINWCPSKSAIMFMTAAKNYTFKETDWGKFFISAGIGRSGEDAGCTINIGVFVDKGLNINGLVDLIRTVTEAKAGALRDLGYKFTGTVSDAIAVGSLPGNEYFIGPGTELGKKIAYDIRNTIVELLFKGDDEGHHHHHH", "soluble on expression in E. coli": "soluble"}
{"sequence": "MLELFLKEEWTTEAKEILRPFGQKKLIGIQMGASNRSRQWFVERWIELAKRIIERDEEVVIVFVGSKNELEEISLVAQALPQDRVFISAGRLSLGAAAALIGELGLLFTPDTGPLHIAVALRVKTISLFAVANPKNSLPDYDQSLHRYIKVDRCCEPCVGKRCAYQKCMEAIGVDEVYEEYKKLQELEHHHHHH", "soluble on expression in E. coli": "soluble"}
{"sequence": "MKGEGVIVGILNKNFSLSKGDLDVVSLGEILVDMISTEEVNSLSQSREYTRHFGGSPANIAVNLSRLGKKVALISRLGADAFGNYLLDVLKGEQIITDGIQQDKERRTTIVYVSKSTRTPDWLPYREADMYLQEDDIIFELIKRSKVFHLSTFILSRKPARDTAIKAFNYAREQGKIVCFDPCYRKVLWPEGDDGAGVVEEIISRADFVKPSLDDARHLFGPDSPENYVKRYLELGVKAVILTLGEEGVIASDGEEIIRIPAFSEDAVDVTGAGDAFWSGFICGLLDGYTVKRSIKLGNGVAAFKIRGVGALSPVPSKEDIIKEYNI", "soluble on expression in E. coli": "soluble"}
{"sequence": "MEFSVKSGSPEKQRSACIVVGVFEPRRLSPIAEQLDKISDGYISALLRRGELEGKPGQTLLLHHVPNVLSERILLIGCGKERELDERQYKQVIQKTINTLNDTGSMEAVCFLTELHVKGRNNYWKVRQAVETAKETLYSFDQLKTNKSEPRRPLRKMVFNVPTRRELTSGERAIQHGLAIAAGIKAAKDLGNMPPNICNAAYLASQARQLADSYSKNVITRVIGEQQMKELGMHSYLAVGQGSQNESLMSVIEYKGNASEDARPIVLVGKGLTFDSGGISIKPSEGMDEMKYDMCGAAAVYGVMRMVAELQLPINVIGVLAGCENMPGGRAYRPGDVLTTMSGQTVEVLNTDAEGRLVLCDVLTYVERFEPEAVIDVATLTGACVIALGHHITGLMANHNPLAHELIAASEQSGDRAWRLPLGDEYQEQLESNFADMANIGGRPGGAITAGCFLSRFTRKYNWAHLDIAGTAWRSGKAKGATGRPVALLAQFLLNRAGFNGEE", "soluble on expression in E. coli": "soluble"}
{"sequence": "MGFNNLVSLAALIEKVFPIRYTPAGIPVLDIILKHESWQEENGQQCLVQLEIPARILGRQAEEWQYRQGVYVHVEGFLAQKSRRSLMPMLRIQNIQEYKG", "soluble on expression in E. coli": "not soluble"}
{"sequence": "MMTRKKELAIALSKLKGFKNPKVWLEQYRTPGNAASELLWLAYSLGDIEGKVVADLGAGTGVLSYGALLLGAKEVICVEVDKEAVDVLIENLGEFKGKFKVFIGDVSEFNSRVDIVIMNPPFGSQRKHADRPFLLKAFEISDVVYSIHLAKPEVRRFIEKFSWEHGFVVTHRLTTKIEIPLQFFFHRKKLERITVDIYRFSKVINSR", "soluble on expression in E. coli": "soluble"}
{"sequence": "KAIYNRNLGYSDGAGAVLALKKKGHQNACKIAGCELWLKIIERYSREKSFYLVGGKPEVIEETIQKLRKDFPRINIVGYRDGYLKGNDDEVLIEDIAAKKPDVVFVAMGSPKQELLMERMQRVHPNAIYQGLGGSFDVYTGRVERAPEWWIRHNLEFAYRLIKQPSRIKRQIHLVRFLFRVLTNRI", "soluble on expression in E. coli": "not soluble"}
